This note sets out measurements from paper PMC3883112 (Cell reports, 2013).

The assay addresses T1, GST-Pol32 (full length Pol32) (yeast (S. cerevisiae), UniProt P47110 1-350).
T1 sequence (looked up): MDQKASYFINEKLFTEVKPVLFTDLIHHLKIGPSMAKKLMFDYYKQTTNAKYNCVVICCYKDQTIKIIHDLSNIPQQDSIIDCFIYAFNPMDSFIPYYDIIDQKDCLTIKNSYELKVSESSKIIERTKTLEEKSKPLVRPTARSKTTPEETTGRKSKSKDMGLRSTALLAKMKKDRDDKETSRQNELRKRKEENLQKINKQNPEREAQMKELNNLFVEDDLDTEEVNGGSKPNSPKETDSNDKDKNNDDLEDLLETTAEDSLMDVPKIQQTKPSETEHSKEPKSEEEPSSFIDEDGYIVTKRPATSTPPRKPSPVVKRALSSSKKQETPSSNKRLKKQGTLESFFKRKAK
The experiment in a line: pull-down.

B1: Rev7 used in the GST pull-down (natural protein, yeast (S. cerevisiae), UniProt P38927 1-245, looked up)
chain: MNRWVEKWLRVYLKCYINLILFYRNVYPPQSFDYTTYQSFNLPQFVPINRHPALIDYIEELILDVLSKLTHVYRFSICIINKKNDLCIEKYVLDFSELQHVDKDDQIITETEVFDEFRSSLNSLIMHLEKLPKVNDDTITFEAVINAIELELGHKLDRNRRVDSLEEKAEIERDSNWVKCQEDENLPDNNGFQPPKIKLTSLVGSDVGPLIIHQFSEKLISGDDKILNGVYSQYEEGESIFGSLF
Consider B1, for which the binding result is recorded as “binds”.
